The text below walks through data of doi:10.1101/2021.07.14.452313.

This experiment deals with biotinylated hACE2-fc (residues 18-740) (human) (UniProt Q9BYF1). Kind of experiment: SPR.
Chain of UniProt Q9BYF1 (Q9BYF1 18-740): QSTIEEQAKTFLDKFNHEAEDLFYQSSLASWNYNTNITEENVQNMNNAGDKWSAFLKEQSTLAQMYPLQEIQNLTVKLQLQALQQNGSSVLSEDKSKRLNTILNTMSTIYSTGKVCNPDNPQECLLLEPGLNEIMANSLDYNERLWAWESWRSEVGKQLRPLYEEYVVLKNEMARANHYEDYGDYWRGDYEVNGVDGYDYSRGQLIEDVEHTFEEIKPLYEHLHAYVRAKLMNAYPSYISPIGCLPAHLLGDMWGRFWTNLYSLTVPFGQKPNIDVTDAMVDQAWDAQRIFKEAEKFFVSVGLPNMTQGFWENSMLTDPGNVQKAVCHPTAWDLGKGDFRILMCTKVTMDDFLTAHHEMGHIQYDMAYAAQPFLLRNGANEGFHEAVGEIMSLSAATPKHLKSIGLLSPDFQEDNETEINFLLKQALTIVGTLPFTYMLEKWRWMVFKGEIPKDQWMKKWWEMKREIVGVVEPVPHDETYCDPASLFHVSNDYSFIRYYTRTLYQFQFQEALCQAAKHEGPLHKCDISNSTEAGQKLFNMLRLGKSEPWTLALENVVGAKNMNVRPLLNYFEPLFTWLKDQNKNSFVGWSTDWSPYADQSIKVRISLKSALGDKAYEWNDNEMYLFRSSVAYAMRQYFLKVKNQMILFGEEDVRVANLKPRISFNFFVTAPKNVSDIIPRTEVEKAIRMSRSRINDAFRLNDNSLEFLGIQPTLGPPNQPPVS

The Kd is the equilibrium constant for the complex coming apart. Regarding “SARS-CoV-2 B.1.1.7 trimeric spike protein (domain or fragment)”, the KD1 (first step, two state fit) came to 193 nM; the Kd was 0.04 nM; the ka1 (first step, two state fit) is 1.31e+06 M⁻¹ s⁻¹; the ka2 (second step, two state fit) came out at 0.053 M⁻¹ s⁻¹. The substance further came in with a kd1 (first step, two state fit) of 0.025 s⁻¹ and a kd2 (second step, two state fit) of 0.00011 s⁻¹.

Substance “SARS-CoV-2 wt trimeric spike protein (domain or fragment)” returned a KD1 (first step, two state fit) of 1.8 nM; a Kd of 0.041 nM; a ka1 (first step, two state fit) of 782000 M⁻¹ s⁻¹; a ka2 (second step, two state fit) of 0.0105 M⁻¹ s⁻¹. Besides, the kd1 (first step, two state fit) was found to be 0.00141 s⁻¹ and the kd2 (second step, two state fit) came out at 0.000244 s⁻¹.
